From patent US20220144895A1, “DE NOVO DESIGN OF TUNABLE PH-DRIVEN CONFORMATIONAL SWITCHES” (University of Washington, priority 2019, published 2022)
“Also recorded” adds a separate entry of the source.

Assays:
[1] = Fluorescence dequenching liposome leakage (liposome disruption) assay; assay type: biochemical
Description: Liposomes composed of DOPC (1,2-dioleoyl-sn-glycero-3-phosphocholine), DOPC with 25% cholesterol (molar ratio to DOPC), 3:1 DOPC:POPS (1-palmitoyl-2-oleoyl-sn-glycero-3-phospho-L-serine), and 3:1 DOPC:POPS with 25% cholesterol were prepared identically to a final concentration of 5 mM total lipid as previously described (32); lipids from Avanti Polar Lipids. Lipids solubilized in chloroform were dried under nitrogen gas and stored under vacuum for a minimum of 2 hours to remove residual solvent. The dried lipid film was the resuspended in Tris buffer (10 mM Tris, 150 mM NaCl, and 0.02% NaN3 pH 8.0) containing 25 mM Sulforhodamine B (SRB) fluorophore (Sigma) and subjected to 10 sequential freeze thaw cycles in liquid nitrogen. Liposomes were extruded 29 times through 100 nm pore size polycarbonate filters (Avanti Polar Lipids) and purified from free fluorophore using a PD-10 gel filtration column (GE Healthcare) into storage buffer (10 mM Tris, 150 mM NaCl, and 0.02% NaN3 pH 8.0). Liposome size and homogeneity was analyzed by dynamic light scattering (DLS) using a Dynapro Nanostar™ DLS (Wyatt Technologies). On average liposome diameter ranged from 120-130 nm with low polydispersity. Liposomes were stored at 4° C. and used within 5 days of preparation.
Liposome disruption and content leakage was analyzed by fluorescence spectroscopy as previously described (32). […] The solution was rapidly acidified to the target pH by addition of a fixed volume of acidification buffer and incubated for 20 minutes. […] SRB fluorescence is independent of pH within the ranges used here. Finally. Triton X-100 (Sigma) was added to a final concentration of 1% to fully disrupt liposomes. Liposome disruption as indicated by content leakage and SRB dequenching was normalized using the formula [Fω−F(0)]/[F(Max)−F(0)] where F(0) is the average fluorescence intensity before acidification and F(Max) is the average fluorescence intensity ater addition of Triton X-100. All measurements were collected on a Varian Cary Eclipse spectrophotometer using an excitation/emission pairing of […] and 2.5 nm slit widths at 24° C. Any data plotted together was collected using the sum batch of liposomes.

[2] = Native mass spectrometry of pH-induced changes in oligomeric state; assay type: physicochemical; conditions: for cooperativity of the pH-induced transition: native MS at different pH values; for pH transition point of disassembly (pH set point, pH0): evaluated from pH 7 down to pH 3; for reversibility of disassembly: pH lowered with acetic acid, then raised by ammonia or buffer exchange
Description: Samples were buffer exchanged twice into 200 mM ammonium acetate (NH4Ac; MilliporeSigma) using Micro Bio-Spin P-6 columns (Bio-Rad). Protein concentrations were determined by UV absorbance using a Nanodrop 2000c spectrophotometer (Thermo Fisher Scientific) and diluted to make up a 10-fold stock solution (50 μM and 16.7 μM monomer and trimer concentration, respectively). 1 μL of this solution was mixed with 9 μL 200 mM NH4Ac/50 mM triethylammonium acetate (TEAA; MilliporeSigma), adjusted with acetic acid (Fisher Scientific) to obtain the desired final pH and incubated on ice for 30 min. […] 5 μL samples were filled into an in-house pulled glass capillary and ionized by nESI at a monomer or a trimer concentration of 5 μM or 1.67 μM respectively. All pH titration data were acquired on an in-house modified SYNAPT® G2 HDMS (Waters Corporation) with a surface-induced dissociation (SID) device incorporated between a truncated trap traveling wave ion guide and the ion mobility cell (39). The following instrument parameters were used spray voltage 0.9-1.3 kV; sampling cone, 20 V; extraction cone, 2 V; source temperature, room temperature; trap gas flow, 4 mL/min; trap bins, 45V. The data were processed with MassLynx™ v4.1 and DriftScope™ v2.1. For relative quantification, charge state series were extracted from DriftScope™, and smoothed spectra (mean; window 20; number of smooths 20) were integrated.
Python scripts were written to generate theoretical models according Equation 1, and curve-fitting to native mass spectrometry data (FIGS. 1, 3, 5) according to Equation 2 by nonlinear least squares using curve fit from scipy.optimize. The free energy estimates for individual n, m, and l layers used in Equation 1 modeling were estimated by solving linear equations as follows: values for the free energy of folding for designs pRO-2 and variants were estimated from GdmCl denaturation experiments (FIG. 11); each of these designs have different numbers of n, m, and l layers, thus series of linear equations relating the number of each layer type to the total free energies of folding were solved to estimate dG values of the individual layers of each type.

B1: SEQ ID NO: 37: pRO2.3, single-chain, GS linkers on all loops, asymmetrized, TEV site opposite to the termini direction (protein)
chain: GSEEEIKRLLEELRKSSEELRRITKELDDLSKELRVGGSGSGSEMLVEHNKLISEHNRIIVENNRIIVEILEAIARVGGSGSGSVEVERILDELRKSSEELDRVTKELKKLTEELDVGGSENLYFQGSGSVEALVRHNVLITRHNDIIVKNNDIINKILKLIAEAVGGSGSGSELERILRELEESTKELRKATEELRRLSEELKVGGSGSGSVEALVRHNEAIVEHNKIIVKNNDIIVKILELITERI
[1]; fused at its n-terminus to a nanoparticle
  liposome disruption relative to pRO2.3, nanoparticle fusion: as well as pRO2.3
[1]; linked-pH trimer
  kinetics of dissociation in the liposome assay: slower
[1]; linked-pH trimer, order of minutes
  membrane disruption level (dye leakage over time): same membrane disruption levels

B2: pRO-2.3-GS: pRO-2.3 with flexible GS loop, SEQ ID NO: 35-36 (protein)
chain 1: MGSHHHHHHGSGSENLYFQGSEYEIRKALEELKASTAELKRATASLRAITEELKKGGSGSGSEDALVEHNRAIVEHNAIIVENNRIIAAVLELIVRAIK
chain 2: GSEYEIRKALEELKASTAELKRATASLRAITEELKKGGSGSGSEDALVEHNRAIVEHNAIIVENNRIIAAVLELIVRAIK
[2]; native MS
  oligomeric state at pH 7 / neutral pH: retains its trimeric assembly at neutral pH
[2]
  cooperativity of the pH-induced transition: less cooperativity

B3: pRO-2-GS: pRO-2 with flexible GS loop, SEQ ID NO: 33-34 (protein)
chain 1: MGSHHHHHHGSGSENLYFQGSEYEIRKALEELKAATAELKRATASLRAITEELKKGGSGSGSEDALVEHNRAIVEHNAIIVEHNRIIAAVLELIVRAIK
chain 2: GSEYEIRKALEELKAATAELKRATASLRAITEELKKGGSGSGSEDALVEHNRAIVEHNAIIVEHNRIIAAVLELIVRAIK
[2]; native MS
  oligomeric state at pH 7 / neutral pH: loses its homogenous trimeric assembly at neutral pH

B4: SEQ ID NO: 38: similar to pRO2.3, TEV site parallel to the termini, aromatic residues on the n-terminal helix (protein)
chain: GSEEEIKRLLEELRKSSEELRRITKELDDLSKELRVGGSGSGSEMLVEHNKLISEHNRIIVENNRIIVEILEAIARVGGSGSGSVEVERILDELRKSSEELDRVTKELKKLTEELDVGGSGSGSVEALVRHNVLITRHNDIIVKNNDIINKILKLIGEAVGGSENLYFQGSGSEFERWLRQLEESTKELRKFTEELRRFSEELKVGGSGSGSVEALVRHNEAIVEHNKAIVKNNDIIVKILELVTERI
[1]; compared with pRO2.3 homotrimer
  liposome disruption better than the pRO2.3 homotrimer: 5-10%

B5: pRO-2.1: pRO-2 variant, SEQ ID NO: 3-4 (protein)
chain 1: MGSHHHHHHGSGSENLYFQGSEYEIRKALEELKAALAELKRATASLRAITEELKKNPSEDALVEHNRAIVEHNAIIVEVLRIIAAVLELIVRAIK
chain 2: SEYEIRKALEELKAALAELKRATASLRAITEELKKNPSEDALVEHNRAIVEHNAIIVEVLRIIAAVLELIVRAIK
[2]; native MS
  pH transition point of disassembly (pH set point, pH0): ~3.5 pH

B6: pRO-2.3: pRO-2 variant, SEQ ID NO: 7-8 (protein)
chain 1: MGSHHHHHHGSGSENLYFQGSEYEIRKALEELKASTAELKRATASLRAITEELKKNPSEDALVEHNRAIVEHNAIIVENNRIIAAVLELIVRAIK
chain 2: SEYEIRKALEELKASTAELKRATASLRAITEELKKNPSEDALVEHNRAIVEHNAIIVENNRIIAAVLELIVRAIK
[2]
  reversibility of disassembly: Re-association was induced

B7: pRO-2.4: pRO-2 variant, SEQ ID NO: 9-10 (protein)
chain 1: MGSHHHHHHGSGSENLYFQGSEYEIRKALEELKAATAELKRATASLRASTEELKKNPSEDALVENNRLIVEHNAIIVEHNRIIAAVLELIVRAIK
chain 2: SEYEIRKALEELKAATAELKRATASLRASTEELKKNPSEDALVENNRLIVEHNAIIVEHNRIIAAVLELIVRAIK
[2]
  cooperativity of the pH-induced transition: less cooperative
  reversibility of disassembly: Re-association was induced
[2]; native MS
  pH transition point of disassembly (pH set point, pH0): higher transition pH

B8: pRO-2.2: pRO-2 variant, SEQ ID NO: 5-6 (protein)
chain 1: MGSHHHHHHGSGSENLYFQGSEYEIRKALEELKAALAELKRATASLRAILEELKKNPSEDAIVEAIRAIVEHNAIIVEVLRIIAAVLELIVRAIK
chain 2: SEYEIRKALEELKAALAELKRATASLRAILEELKKNPSEDAIVEAIRAIVEHNAIIVEVLRIIAAVLELIVRAIK
[2]; native MS, pH ~7 to ~3
  pH response of oligomeric state (pH-induced disassembly): eliminates the pH response altogether; also recorded: no significant pH response

B9: pRO-4: designed heterodimer, SEQ ID NO: 27-28, chains 81 and 82 (protein)
chain 1: MDEEDHLKKLKTHLEKLERHLKLLEDHAKKLEDILKERPEDSAVKESIDELRRSIELVRESIEIFRQSVEEEEGSSHHHHHHSSGENLYFQGDVKELTKILDTLTKILETATKVIKDATKLLEEHRKSDKPDPRLIETHKKLVEEHETLVRQHKELAEEHLKRTR
chain 2: MDEEDHLKKLKTHLEKLERHLKLLEDHAKKLEDILKERPEDSAVKESIDELRRSIELVRESIEIFRQSVEEEEGDVKELTKILDTLTKILETATKVIKDATKLLEEHRKSDKPDPRLIETHKKLVEEHETLVRQHKELAEEHLKRTR
chain 3: MDEEDHLKKLKTHLEKLERHLKLLEDHAKKLEDILKERPEDSAVKESIDELRRSIELVRESIEIFRQSVEEEE
chain 4: GSSHHHHHHSSGENLYFQGDVKELTKILDTLTKILETATKVIKDATKLLEEHRKSDKPDPRLIETHKKLVEEHETLVRQHKELAEEHLKRTR
modifications: Synthetic polpypeptide; (1)..(18) Optional residues
[2]; native MS
  pH transition point of disassembly (pH set point, pH0): ~4 pH

B10: pRO-4 L23A/V130A: pRO-4 mutant heterodimer, SEQ ID NO: 29-30, 83-84 (protein)
chain 1: MDEEDHLKKLKTHLEKLERHLKLAEDHAKKLEDILKERPEDSAVKESIDELRRSIELVRESIEIFRQSVEEEEGSSHHHHHHSSGENLYFQGDVKELTKILDTLTKILETATKVIKDATKLLEEHRKSDKPDPRLIETHKKLVEEHETLARQHKELAEEHLKRTR
chain 2: MDEEDHLKKLKTHLEKLERHLKLAEDHAKKLEDILKERPEDSAVKESIDELRRSIELVRESIEIFRQSVEEEEGDVKELTKILDTLTKILETATKVIKDATKLLEEHRKSDKPDPRLIETHKKLVEEHETLARQHKELAEEHLKRTR
chain 3: MDEEDHLKKLKTHLEKLERHLKLAEDHAKKLEDILKERPEDSAVKESIDELRRSIELVRESIEIFRQSVEEEE
chain 4: GSSHHHHHHSSGENLYFQGDVKELTKILDTLTKILETATKVIKDATKLLEEHRKSDKPDPRLIETHKKLVEEHETLARQHKELAEEHLKRTR
modifications: Synthetic polpypeptide; (1)..(18) Optional residues
[2]; native MS
  pH transition point of disassembly (pH set point, pH0): ~4.6 pH
